Measured values published in patent US20240376151A1, “STAPLED PEPTIDES AND METHODS THEREOF” (FOG PHARMACEUTICALS, INC., priority 2022, published 2024).

Assays:
Expi293 cells [1] = assay: Measurement of the Cell Association of Helicons (mass spectrometry quantification in cells after treatment and wash); format: cell-based; conditions: percentage of Helicons in cells after treatment and wash, 22 hours, n = 2, mean ± SD
Description: All samples were analyzed using mass spectrometry.

Expi293 cells [2] = assay: CellTiter-Glo cell health (ATP levels) during cell association assay; format: cell-based; conditions: reflective of cell health, luminescence Tfinal (22 hours) / Tinitial
CUL1 = target: T1, CUL1 (Homo sapiens, UniProt Q13616, L371D/V367R); assay: Naive Library Presenter Screening (phage, NGS), CUL1; format: binding; conditions: for interaction data at Target Concentration 10: CUL1 target concentration 10 nM; for interaction data at Target Concentration 30: CUL1 target concentration 30 nM; for interaction data at Target Concentration 100: CUL1 target concentration 100 nM; for interaction data at Target Concentration 300: CUL1 target concentration 300 nM; for interaction data at Target Concentration 1000: CUL1 target concentration 1000 nM
T1 construct: CUL1 (Uniprot ID: Q13616, residue 15-410, V367R/L371D); GST-TEV (N, cleaved yes); made in house; host or cells: E. coli BL21 CodonPlus
T1 sequence (Q13616 15-410 V367R/L371D): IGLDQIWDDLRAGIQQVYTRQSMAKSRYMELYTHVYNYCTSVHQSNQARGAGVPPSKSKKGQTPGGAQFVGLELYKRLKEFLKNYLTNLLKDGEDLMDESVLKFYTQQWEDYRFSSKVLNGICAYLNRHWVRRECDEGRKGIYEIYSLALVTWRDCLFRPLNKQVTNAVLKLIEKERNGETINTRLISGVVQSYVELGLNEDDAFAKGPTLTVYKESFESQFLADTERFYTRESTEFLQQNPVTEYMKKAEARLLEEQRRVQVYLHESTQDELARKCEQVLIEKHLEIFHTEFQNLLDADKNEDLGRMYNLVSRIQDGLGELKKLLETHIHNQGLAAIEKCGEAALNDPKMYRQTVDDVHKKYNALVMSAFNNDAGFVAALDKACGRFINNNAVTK

interaction data at Target Concentration 10 (CUL1)	interaction data at Target Concentration 30 (CUL1)	interaction data at Target Concentration 100 (CUL1)	interaction data at Target Concentration 300 (CUL1)	interaction data at Target Concentration 1000 (CUL1; first column)	interaction data at Target Concentration 1000 (CUL1; second column)	Compound	Helicon in cells ± SD (%) (Expi293 cells [1])	CellTiter-Glo fold change ± SD (Expi293 cells [2])
–	–	–	–	–	–	CC(=O)N[C@@H](CC(C)C)C(=O)N[C@H](C(=O)N[C@@H](Cc1ccccc1)C(=O)N[C@]1(C)CCCCCCC=CCCC[C@@](C)(C(=O)N[C@@H](CO)C(=O)N[C@@H](C)C(=O)N[C@@H](C)C(N)=O)NC(=O)[C@H](CC2CCC2)NC(=O)[C@H](CCC(N)=O)NC(=O)[C@H](C)NC(=O)[C@H](Cc2c[nH]c3ccccc23)NC(=O)[C@H](Cc2ccc(O)cc2)NC(=O)[C@H](CCC(=O)O)NC1=O)[C@@H](C)O [FP01413, Ac-Leu-Thr-Phe-R8-Glu-Tyr-Trp-Ala-Gln-Cba-S5-Ser-Ala-Ala-NH2, reference compound]	3.7 ± 0.4	1.2 ± 0.07
–	–	–	–	–	–	CCCC[C@H](NC(=O)[C@@H](NC(C)=O)C(C)C)C(=O)N[C@@H](CCC(N)=O)C(=O)N[C@]1(C)CCCCCCC=CCCC[C@@](C)(C(=O)N[C@@H](Cc2c[nH]cn2)C(=O)N[C@@H](Cc2ccc(O)cc2)C(=O)N[C@H](C(N)=O)C(C)C)NC(=O)[C@H]([C@@H](C)CC)NC(=O)[C@H](Cc2ccccc2)NC(=O)[C@H](C)NC(=O)[C@H](C)NC(=O)[C@H](CCC(=O)O)NC(=O)[C@H](Cc2ccc(O)cc2)NC1=O (single isomer, unassigned) [FP07863, Ac-Val-nLeu-Gln-R8-Tyr-Glu-Ala-Ala-Phe-Ile-S5-His-Tyr-Val-NH2]	23.5 ± 6.5	1.2 ± 0.02
–	–	–	–	–	–	CCCC[C@H](NC(=O)[C@H](Cc1ccc(O)cc1)NC(=O)[C@H](CCC(N)=O)NC(=O)[C@]1(C)CCCC=CCCCCCC[C@@](C)(NC(=O)[C@H](CCC(=O)O)NC(=O)[C@H](CC(C)C)NC(=O)[C@@H](NC(C)=O)[C@@H](C)CC)C(=O)N[C@@H](Cc2ccc(O)cc2)C(=O)N[C@@H](CCC(=O)O)C(=O)N[C@@H](C)C(=O)N[C@@H](C)C(=O)N[C@@H](Cc2ccccc2)C(=O)N[C@@H](CCC(=O)O)C(=O)N1)C(N)=O (single isomer, unassigned) [FP08018, Ac-Ile-Leu-Glu-R8-Tyr-Glu-Ala-Ala-Phe-Glu-S5-Gln-Tyr-nLeu-NH2]	1.0 ± 0.1	1.1 ± 0.05
–	–	–	–	–	–	CCCC[C@H](NC(=O)[C@@H](NC(C)=O)C(C)C)C(=O)N[C@@H](CCC(=O)O)C(=O)N[C@]1(C)CCCCCCC=CCCC[C@@](C)(C(=O)N[C@@H](Cc2c[nH]cn2)C(=O)N[C@@H](Cc2ccc(O)cc2)C(=O)N[C@H](C(N)=O)C(C)C)NC(=O)[C@H]([C@@H](C)CC)NC(=O)[C@H](Cc2ccccc2)NC(=O)[C@H](C)NC(=O)[C@H](C)NC(=O)[C@H](CCC(N)=O)NC(=O)[C@H](Cc2ccc(O)cc2)NC1=O (single isomer, unassigned) [FP07867, Ac-Val-nLeu-Glu-R8-Tyr-Gln-Ala-Ala-Phe-Ile-S5-His-Tyr-Val-NH2]	8.6 ± 0.4	1.2 ± 0.03
–	–	–	–	–	–	CCCC[C@H](NC(=O)[C@@H](NC(C)=O)C(C)C)C(=O)N[C@@H](CCC(N)=O)C(=O)N[C@]1(C)CCCCCCC=CCCC[C@@](C)(C(=O)N[C@@H](Cc2c[nH]cn2)C(=O)N[C@@H](Cc2ccc(O)cc2)C(=O)N[C@H](C(N)=O)C(C)C)NC(=O)[C@H]([C@@H](C)CC)NC(=O)[C@H](Cc2ccccc2)NC(=O)[C@H](C)NC(=O)[C@H](C)NC(=O)[C@H](CCC(=O)O)NC(=O)[C@H](Cc2ccc(O)cc2)NC1=O (single isomer, unassigned) [FP07864, Ac-Val-nLeu-Gln-R8-Tyr-Glu-Ala-Ala-Phe-Ile-S5-His-Tyr-Val-NH2]	18.5 ± 11.4	1.1 ± 0.05
–	–	–	–	–	–	CCCC[C@H](NC(=O)[C@@H](NC(C)=O)C(C)C)C(=O)N[C@@H](CCC(N)=O)C(=O)N[C@]1(C)CCCCCCC=CCCC[C@@](C)(C(=O)N[C@@H](Cc2c[nH]cn2)C(=O)N[C@@H](Cc2ccc(O)cc2)C(=O)N[C@H](C(N)=O)C(C)C)NC(=O)[C@H]([C@@H](C)CC)NC(=O)[C@H](Cc2ccccc2)NC(=O)[C@H](C)NC(=O)[C@H](C)NC(=O)[C@H](CCC(N)=O)NC(=O)[C@H](Cc2ccc(O)cc2)NC1=O (single isomer, unassigned) [FP07871, Ac-Val-nLeu-Gln-R8-Tyr-Gln-Ala-Ala-Phe-Ile-S5-His-Tyr-Val-NH2]	7.0 ± 0.3	1.2 ± 0.03
–	–	–	–	–	–	CCCC[C@H](NC(=O)[C@@H](NC(C)=O)C(C)C)C(=O)N[C@@H](CCC(=O)O)C(=O)N[C@]1(C)CCCCCCC=CCCC[C@@](C)(C(=O)N[C@@H](Cc2c[nH]cn2)C(=O)N[C@@H](Cc2ccc(O)cc2)C(=O)N[C@H](C(N)=O)C(C)C)NC(=O)[C@H]([C@@H](C)CC)NC(=O)[C@H](Cc2ccccc2)NC(=O)[C@H](C)NC(=O)[C@H](C)NC(=O)[C@H](CCC(=O)O)NC(=O)[C@H](Cc2ccc(O)cc2)NC1=O (single isomer, unassigned) [FP07856, Ac-Val-nLeu-Glu-R8-Tyr-Glu-Ala-Ala-Phe-Ile-S5-His-Tyr-Val-NH2]	15.5 ± 0.9	1.3 ± 0.12
0	0	57	36	57	151	DPAYDWCDVAALFCLVE	–	–
1	3	77	64	143	126	DPAMLQCDMAALWCMVS	–	–
0	7	61	73	111	119	DPAQILCDLAALYCVVE	–	–
–	–	–	–	–	–	CCCC[C@H](NC(=O)[C@H](Cc1ccc(O)cc1)NC(=O)[C@H](CCC(N)=O)NC(=O)[C@]1(C)CCCC=CCCCCCC[C@@](C)(NC(=O)[C@H](CCC(=O)O)NC(=O)[C@H](CC(C)C)NC(=O)[C@@H](NC(C)=O)[C@@H](C)CC)C(=O)N[C@@H](Cc2ccc(O)cc2)C(=O)N[C@@H](CCC(=O)O)C(=O)N[C@@H](C)C(=O)N[C@@H](C)C(=O)N[C@@H](Cc2ccccc2)C(=O)N[C@@H](CCC(=O)O)C(=O)N1)C(N)=O (single isomer, unassigned) [FP08017, Ac-Ile-Leu-Glu-R8-Tyr-Glu-Ala-Ala-Phe-Glu-S5-Gln-Tyr-nLeu-NH2]	0.6 ± 0.1	1.2 ± 0.01
0	0	35	135	151	88	DPAEQMCDIAAVWCLAH	–	–
14	19	340	937	1137	743	DPAEQECDHAALWCIVA	–	–
4	32	183	247	517	300	DPAEFVCDWAALACLVD	–	–
1	1	233	428	586	468	DPAQNDCEVAAFFCWLD	–	–
